This is an account of results in PMC5041982 (2016).

This experiment concerns the target T1, EGFR pY1068 phosphododecapeptide dodecapeptide surrounding Y1068 (Homo sapiens, UniProt P00533).
T1 chain: LPVPE[pY]INQSVP
In words: microscale thermophoresis.

Where no end group is shown, it is not given here. [ ]: non-standard residue; d: D form. pY = N[C@@H](Cc1ccc(OP(=O)(O)O)cc1)C(=O)O

B1: STAT3 127-722 (protein)
chain: GQANHPTAAVVTEKQQMLEQHLQDVRKRVQDLEQKMKVVENLQDDFDFNYKTLKSQGDMQDLNGNNQSVTRQKMQQLEQMLTALDQMRRSIVSELAGLLSAMEYVQKTLTDEELADWKRRQQIACIGGPPNICLDRLENWITSLAESQLQTRQQIKKLEELQQKVSYKGDPIVQHRPMLEERIVELFRNLMKSAFVVERQPCMPMHPDRPLVIKTGVQFTTKVRLLVKFPELNYQLKIKVCIDKDSGDVAALRGSRKFNILGTNTKVMNMEESNNGSLSAEFKHLTLREQRCGNGGRANCDASLIVTEELHLITFETEVYHQGLKIDLETHSLPVVVISNICQMPNAWASILWYNMLTNNPKNVNFFTKPPIGTWDQVAEVLSWQFSSTTKRGLSIEQLTTLAEKLLGPGVNYSGCQITWAKFCKENMAGKGFSFWVWLDNIIDLVKKYILALWNEGYIMGFISKERERAILSTKPPGTFLLRFSESSKEGGVTFTWVEKDISGKTQIQSVEPYTKQQLNNMSFAEIIMGYKIMDATNILVSPLVYLYPDIPKEEAFGKYCRPESQEHPEADPGSAAPYLKTKFICVTPTTCSNTI
In turn, B1 returned a Kd of 1.1 nM.
